Test results: the nanobody polyreactivity screen of Harvey et al. (2022)

assay: yeast display, Sf9 membrane polyspecificity reagent, FACS + sequencing; frameworks hold sequencing errors
In short: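 A nanobody's polyreactivity label depends on the gate it was sorted from. Yeast display cells were stained with 10% biotinylated, detergent-solubilized Sf9 membrane reagent for 1 hour at 4 °C, enriched on streptavidin microbeads and sorted by FACS. The low and high (top ~1%) gates were set on anti-HA fluorescence for expression and streptavidin fluorescence for reagent binding.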

Row | Sequence | polyreactivity (PSR sort gate)
1 | QDQLVESGGGLVQAGGSLRLSCAASGFTFRRYAMGWYRQAPGKERELVAAISYTGGITYYADSVKGRFTISRDNAKNTVYLQMNSLKPEDTAVYYCAAESVWTWDYTTAGMDYWGQGTQVTVSS | high polyreactivity
2 | QDQLVESGGGLVQAGGSLRLSCAASGFTFVYNAMGWYRQAPGKERELVAAITSGGNTYYADSVKGRFTISRDNAKNTVYLQMNSLKPEDTAVYYCAADRFTVRMDYWGQGTQVTLSS | high polyreactivity
3 | QDQLVESGGGLVQAGGSLRLSCAASGFTFWEYAMGWYRHAPGKERELVAAISRGTSTYYADSVKGRFTISRDNAKNTVYLQMNSLKPEDTAVYYCASAPSYYPARHGYWGQGTQVTVSS | low polyreactivity
4 | QDQLVESGGGLVQAGGSLRLSCAASGFTFYAYSMGWYRQAPGKERELVAAITYIGSTYYADSVKGRFTISRDNAKNTVYLQMNSLKPEDTAVYYCAAVKVFLGLGYDYWGQGTQVTVSS | low polyreactivity
5 | QDQLVESGGGLVQAGGSLRLSCAASGFTFYLYTMGSYRQAPGKERELVATITSDGGTNYADSVKGRFTISRDNAKNTVYLQMNSLKPEDTAVYFCNAASRRGSRKQAKYDYWGQGTQVTVSS | low polyreactivity
6 | QDQLVESGGGLVQAGGSLRLSCAASGFTFYSYAMGWYRQAPGKERELVAAISYRGGSTYYADSVKGRFTISRDNAKNTVYFQMNSLKPEDTAVYYCAARSPSAAYGSYGVYYWGQGTQVTVSS | high polyreactivity
7 | QDQLVESGGGLVQAGGSLRLSCAASGFTLHVYAMGWYRQAPGKERELVAAISTGGNTNYGDSVKGRFTISRDNAKNTVYLQMNSLKPEDTAVYYCNARYTSRRSRRPYYYWGQGTQVTVSS | high polyreactivity
8 | QDQLVESGGGLVQAGGSLRLSCAASGGIFKSNTMGWDRTAHGKERELVAAITYSDGGTYYADSVKGRFTISRDNAKNTVYLQMNSLTPEDTAVYYCAVDYDTFYWHHYPGEIDHWGQGTQVNVSS | low polyreactivity
9 | QDQLVESGGGLVQAGGSLRLSCAASGGNFPPYDMGWYRQAPGKERDLVATISSDSTNYADSVKGRFTISRDNAKNTVYLQMNSLKPEDSAVYYCAVRFYWAPGGGEYDYWGQGTQVTVSS | low polyreactivity
10 | QDQLVESGGGLVQAGGSLRLSCAASGIIFDDNTMGWYRQAPGKERELVAAISSSGGSTYYADSVKGRFTISRDNAKNTVYLQMNSLKPEDTAVYYCAAAVYYTYPYIVYRNYPEFDYRGQGTQVTVSS | low polyreactivity
11 | QDQLVESGGGLVQAGGSLRLSCAASGIIFRNYAMGWYRQAPGKERELVATIRYRGGRTYADSVKGRFTISRDNAKNTVYLQMNSLKPEDTAVYYCNARRLSDYGDYDYWGQGTQVTVSS | high polyreactivity
12 | QDQLVESGGGLVQAGGSLRLSCAASGITFAYYAMGWYTQAPGKERELVAGISKSGGRTYYADSVKGRFTISRDHAKNTVYLQMNSLKPEDTAVYYCAAQDARRIVYYRYYYWGQGTQVTVSS | high polyreactivity
13 | QDQLVESGGGLVQAGGSLRLSCAASGITFPNYAMGWYGQAPGKERELVAAISRGDSTYYADSVKGRFTISRDNAKNTVYLQMNSLKPEDTAVYYCAARYGRYWSSSGSWTPYGYWGQGTQVTVSS | high polyreactivity
14 | QDQLVESGGGLVQAGGSLRLSCAASGLIFLYPMGGYRQAPGKERELVAAISNGGSTYYADSVKGRFTISRDNAKNTVYLQMNSLKPEDTAVYFCAAKGVRRRYRPDMYYWGQGTQVTVSS | high polyreactivity
15 | QDQLVESGGGLVQAGGSLRLSCAASGLIFTGNVMGWYRQEPGKERELVAAISRSGGRTYYADSVKGRFTISRDNAKNTVYLQMNSLKREDTAVYYCNKVSPERVYYGSYFRYYYWGQGTQVTVSS | high polyreactivity
16 | QDQLVESGGGLVQAGGSLRLSCAASGLIFVRYAMGWYRQAPGKERELVATITWSGGTTYADSVKGRFTISRDNAKKTVYLQMNSLNPEDTAVYYCAVASGPELDYWGQGTQVTVSS | low polyreactivity
17 | QDQLVESGGGLVQAGGSLRLSCAASGLTFAPYAMGWYREAPGKERELVAAISNGGSTYYADSVKGRFTISRDNAKNTVYLQMISLKPEDTAVYYCADRAFYFWRGYDYWGQGTQVTVSS | high polyreactivity
18 | QDQLVESGGGLVQAGGSLRLSCAASGLTFYVNAMGWYRQAPGTERELDAAITWSGGSTHYADSVKGRFTISRDNAKNTVYLQMNSLKPEDTAVYYCGRATFQNSYVAYDYCGQGTQVTVSS | low polyreactivity
19 | QDQLVESGGGLVQAGGSLRLSCAASGRIFAGYTMGWSRQAPGKERELVAAISWSGGRTYYADSVKGRFTISRDNAKNTVYLQMNSLKPEDTAVYYCNIVGWYHNYYYWGQGTQVTVSS | high polyreactivity
20 | QDQLVESGGGLVQAGGSLRLSCAASGRIFDRYAMGWYRQAPGKERELVAAISGRTGSTYYADSVKGRFTISRDNAKNTVYLQMNSLKPEDTAVYYCAKRSYWDGVRYDYWGQGTQVTVSS | high polyreactivity
21 | QDQLVESGGGLVQAGGSLRLSCAASGRIFEGNAMGWYRQAPGKEREFLAAISDGGSTNYADSVKGRFTISRDNAKNTVYLQLNSLKPEETAVYYCNVGANVYMLYFPSRGGVYDYGYWGQGTQVNVSS | low polyreactivity

Row | Sequence | polyreactivity (PSR sort gate)
22 | QDQLVESGGGLVQAGGSLRLSCAASGRIFGWYAMGWYRQAPGKEREFVAAISRGGSTNYADSVKGRFTISRDNAKNTVYLQMNSLKAEDTAVYYCNARKRGSRLRREFDYWGQGTQVTVST | high polyreactivity
23 | QDQLVESGGGLVQAGGSLRLSCAASGRIFHFNAMGWYRQAPGKERELVAAITSSGGSTDYADSVKGRFTISRDTAKNTVYLQMNRLKPEDTADYYCAKRVDAYGWWGRRSGVLSDYWGQGTQVTVSS | low polyreactivity
24 | QDQLVESGGGLVQAGGSLRLSCAASGRIFKVYAMGRYRQAPGKERELVAAITRNTGSTYYADSVKGRFTISRDNAKNTVYLQMNSLKPEDTSVFYCAVDVRSGRAYDYWGQGTQVTVSS | high polyreactivity
25 | QDQLVESGGGLVQAGGSLRLSCAASGRIFPYNAMGWYRQAPGKERELVAGISRTGGSTYYADSVKGRFTISRDNAKNTVYLQMNSLKPEDTAVYYCAARPGAHPDRLDYWGQGTQVTVSS | low polyreactivity
26 | QDQLVESGGGLVQAGGSLRLSCAASGRIFVYNDMGWYIQAPGKERELVAAISSVGTTYYADSVKGRFTISRDNAKNTVYLQMNSLIPEDTAVYYCAVTRYQSPPRYYYWGQGTQVTVSS | low polyreactivity
27 | QDQLVESGGGLVQAGGSLRLSCAASGRILKYNAMGWYRQAPGKERELVAAISYRGGSTYYADSVKGRFTISRDNAMNTVYLQMNSLKPEDTAVYYCNAGGGILNGPLFDYWGQGTQVTVSS | low polyreactivity
28 | QDQLVESGGGLVQAGGSLRLSCAASGRNFKYYGMRRYRQAPVKERDLVAAISRGSSTNYADSVKGRFTISRDNAKKTVYLQMYSLKPEDTAVYYCAVSLRRGGSGYAYDNWGQGTQVTVSA | high polyreactivity
29 | QDQLVESGGGLVQAGGSLRLSCAASGRTCGYYTMGWYRQAPGKERELVATISSDGTTNYADSVKGRFTISRDNAKNTVYLQMNSLKQEDTAGYYCNADFRLQYYYRIYDYWGQGTQVTVSS | low polyreactivity
30 | QDQLVESGGGLVQAGGSLRLSCAASGRTFASYAMGWYRQAPGKERELVAAITSSGGRTYYADSVKGRFTISRDYAKNTVYLQMNSLKPEVTAVYYCAVRGTKGYGYWGQGTQVTVSS | high polyreactivity
31 | QDQLVESGGGLVQAGGSLRLSCAASGRTFGDKALGWYRQAPGKERELVAAISWSGGRTYYADSVKGRFTISRDYGKNTVYLQMNSLKPEDTAVYYCAARNNRYPLYNYWGQGTQVTVSS | low polyreactivity
32 | QDQLVESGGGLVQAGGSLRLSCAASGRTFGTNARGWYRQAPGKERELVAGINYSDGSTYYADSVKGRFTISRDNAKNTVYLQMNSLKPEVTAVYYCAADPGWAWWELYYWGQGTQVTVSS | low polyreactivity
33 | QDQLVESGGGLVQAGGSLRLSCAASGRTFIRNAMGWYRQAPGKERELVAAITNSGGSTYYADSVKGRFTISRDNAKNTVYLQMNSLNPEDTAVYDCNRVYRSHRPYTYPFSYDYWGQGTQVTVSS | high polyreactivity
34 | QDQLVESGGGLVQAGGSLRLSCAASGRTFKGYAMGWYRQAPGKERELVAAIDSDGSTSYADSVKGRFTISRDNAKNTVYLQMISLKPEDTAVYYCAAAGQRPYEKGDYWGQGTQVTVSS | low polyreactivity
35 | QDQLVESGGGLVQAGGSLRLSCAASGRTFPRNAMGWYRQAPGKERELVAAISSTGDSTYYADSVKGRFTISRDNAKNTVYLQMNSLKPEDTAVYYCHYPYDYWGQGTQVTVSS | low polyreactivity
36 | QDQLVESGGGLVQAGGSLRLSCAASGRTFYFYAMGWYRQAPGKERELVAAISWTGGITYYADSVKGRFTISRDNAKNTVYLQMNSLKPEDTAVYYCAKKYYKVHKFDYWGQGTQVTVSS | low polyreactivity
37 | QDQLVESGGGLVQAGGSLRLSCAASGRTFYYYTMGWDRQAPGKERELVAAISRRGGRTYYADSVKRRFTISRDNAKNTVYLQMTSLKPEDTAVYYCAADRDHVVDFDYWGQGTQVTVSS | high polyreactivity
38 | QDQLVESGGGLVQAGGSLRLSCAASGRTIVLNPMGWYRQAHGKERELVAAISSGGSTNYADSVKGRFTISRDNAKNTVYLQMNSLNPEDTAVYYCAGQDVNLYSAYYYWGQGTQVTVSS | low polyreactivity
39 | QDQLVESGGGLVQAGGSLRLSCAASGRTLGKYAMGWSRQAPGQERELVAAITQRGGITYYADSVQGRFTISRDNAKNTVYLQMNSLKPEDTAVYYCAASLYSYRSPYTFYYWGQGTQVTVSS | high polyreactivity
40 | QDQLVESGGGLVQAGGSLRLSCAASGRTLVGNAMGLYRQAHGKERELVAAISLSDDITYYADSVKGRFTISRDNAKKTFYLQMNSLKPEDTAVYYCAAVYPGDSDFLGSYEESDSWGQGTQVTVSS | low polyreactivity
41 | QDQLVESGGGLVQAGGSLRLSCAASGRTLVHYGMGRYRQAPRKERELVAVITSGGSTYYADSVKARFTISRDNAKNTVYLQMNSLKPEDTAVYYCAAYKERFYEEYGYWGQGTQLTVSS | low polyreactivity
